Laboratory results from patent US11351270B2, “Junctophilin-2 fragments and uses therefor” (University of Iowa Research Foundation, priority 2016, dated 2022).

System: RNA polymerase II (RPB1) and TATA-box binding protein (TBP)
Test: Crosslinking-reversal co-IP in 293T cells
Conditions: JP2NT-transfected 293T cells
Experimental: Cells were first crosslinked by 1% formaldehyde for 10 minutes at RT before quenching by 0.75 M Tris. After washing with PBS, cells were lysized using RIPA buffer and sonication was applied to breakdown chromatin and shear DNA. Anti-HA resin (sigma) was used to pull down HA tagged protein complexes. The pulled-down protein complexes were boiled at 95° C. for 10 minutes to reverse the formaldehyde induced crosslinking between proteins. Western blot was used to assay the presence of bait and prey proteins.
TBP specifically binds to TATA boxes, eukaryotic core cis-regulatory elements localized at transcription start site. […] This interaction was abrogated by mutation of the TATA box elements (FIGS. 11E&G and 17B). It was concluded that JP2NT is a DNA binding protein, binding to consensus TATA box represented as TATAA(A/T) or TATATA (FIG. 11F).

B1: JP2NT: shorter form of Junctophilin-2 including the first 565 amino acids of N-terminus of JP2 (protein, UniProt Q9BR39 1-565, looked up, fragment)
chain: MSGGRFDFDDGGAYCGGWEGGKAHGHGLCTGPKGQGEYSGSWNFGFEVAGVYTWPSGNTFEGYWSQGKRHGLGIETKGRWLYKGEWTHGFKGRYGIRQSSSSGAKYEGTWNNGLQDGYGTETYADGGTYQGQFTNGMRHGYGVRQSVPYGMAVVVRSPLRTSLSSLRSEHSNGTVAPDSPASPASDGPALPSPAIPRGGFALSLLANAEAAARAPKGGGLFQRGALLGKLRRAESRTSVGSQRSRVSFLKSDLSSGASDAASTASLGEAAEGADEAAPFEADIDATTTETYMGEWKNDKRSGFGVSERSSGLRYEGEWLDNLRHGYGCTTLPDGHREEGKYRHNVLVKDTKRRMLQLKSNKVRQKVEHSVEGAQRAAAIARQKAEIAASRTSHAKAKAEAAEQAALAANQESNIARTLARELAPDFYQPGPEYQKRRLLQEILENSESLLEPPDRGAGAAGLPQPPRESPQLHERETPRPEGGSPSPAGTPPQPKRPRPGVSKDGLLSPGAWNGEPSGEGSRSVTPSEGAGRRSPARPATERMAIEALQAPPAPSREPEVALYQG
modifications: GST or adenoviral forms
notes: shorter form of Junctophilin-2 including the first 565 amino acids of N-terminus of JP2
For B1, the “association with RNA polymerase II (RPB1) and TBP” value was “associates”.
